Data reported in paper doi:10.1101/2024.01.05.574302 (bioRxiv, 2024).

T1: gAnkB aa. 1477-1792 (human, UniProt Q01484 1477-1792)
T1 sequence (looked up): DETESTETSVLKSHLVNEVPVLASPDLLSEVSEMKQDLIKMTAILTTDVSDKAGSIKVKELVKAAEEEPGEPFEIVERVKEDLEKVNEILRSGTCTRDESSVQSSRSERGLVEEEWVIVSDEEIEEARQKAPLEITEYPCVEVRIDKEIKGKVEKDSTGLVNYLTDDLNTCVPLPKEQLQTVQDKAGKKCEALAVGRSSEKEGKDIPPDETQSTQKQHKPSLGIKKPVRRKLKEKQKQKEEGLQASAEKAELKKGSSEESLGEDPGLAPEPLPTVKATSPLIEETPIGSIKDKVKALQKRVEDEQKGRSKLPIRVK

B1: gAnkB peptide (aa. 1699-1710) (peptide, UniProt Q01484 1699-1710, looked up)
chain: GIKKPVRRKLKE
B2: gAnkB peptide K1702E (peptide, UniProt Q01484 1699-1710, looked up)
chain: GIKEPVRRKLKE
B3: gAnkB peptide P1703G (peptide, UniProt Q01484 1699-1710, looked up)
chain: GIKKGVRRKLKE
B4: gAnkB peptide R1705E (peptide, UniProt Q01484 1699-1710, looked up)
chain: GIKKPVERKLKE
B5: ASAP1 SH3 domain (aa. 1083-1147) (domain or fragment, mouse, UniProt Q9QWY8 1083-1147, looked up)
chain: GKNKVRRVKTIYDCQADNDDELTFIEGEVIIVTGEEDQEWWIGHIEGQPERKGVFPVSFVHILSD
B6: mouse ASAP2-SH3 (aa. 896-958) recombinant protein (domain or fragment, UniProt Q7SIG6 896-958, looked up)
chain: SKPKRVKALYNCVADNPDELTFSEGDVIIVDGEEDQEWWIGHIDGEPSRKGAFPVSFVHFIAD

How the values were obtained:
[1] = target: B5; assay: ITC
[2] = target: T1, gAnkB aa. 1477-1792; assay: ITC

Clasp1 (from UniProt Q7Z460 1-1538) (natural protein)
Kd [1]: 8900 nM

B1
Kd [1]: ~140 nM

B2
fold weakening of binding against the wild-type gAnkB peptide [1]: ~120 fold

B3
fold decrease of affinity against the wild-type gAnkB peptide [1]: ~3 fold

B4
fold weakening of binding against the wild-type gAnkB peptide [1]: ~125 fold

B5
Kd [2]: ~140 nM

B6
Kd [2]: ~68 nM
